# T1: PDK1-L155E (Homo sapiens, UniProt O15530, L155E)
# T1 construct: made in house; host or cells: human embryonic kidney 293 cells
# T1 sequence (O15530 1-556 L155E): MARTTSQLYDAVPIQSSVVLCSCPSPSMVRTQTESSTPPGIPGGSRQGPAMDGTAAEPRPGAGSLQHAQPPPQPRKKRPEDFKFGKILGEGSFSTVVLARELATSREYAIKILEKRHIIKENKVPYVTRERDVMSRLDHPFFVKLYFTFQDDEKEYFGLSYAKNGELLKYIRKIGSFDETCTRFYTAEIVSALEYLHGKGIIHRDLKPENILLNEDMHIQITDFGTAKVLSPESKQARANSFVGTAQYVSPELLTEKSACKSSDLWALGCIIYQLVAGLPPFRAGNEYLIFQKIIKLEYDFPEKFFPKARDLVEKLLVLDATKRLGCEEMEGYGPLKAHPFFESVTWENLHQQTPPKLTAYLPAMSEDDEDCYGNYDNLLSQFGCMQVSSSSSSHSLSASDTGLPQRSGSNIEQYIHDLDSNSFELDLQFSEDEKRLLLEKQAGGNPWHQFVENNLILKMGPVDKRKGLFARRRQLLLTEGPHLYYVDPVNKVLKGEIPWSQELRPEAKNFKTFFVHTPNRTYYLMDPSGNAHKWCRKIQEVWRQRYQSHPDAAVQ
# T2: PDK1-wt (Homo sapiens, UniProt O15530)
# T2 construct: made in house; host or cells: human embryonic kidney 293 cells
# T2 sequence (O15530 1-556): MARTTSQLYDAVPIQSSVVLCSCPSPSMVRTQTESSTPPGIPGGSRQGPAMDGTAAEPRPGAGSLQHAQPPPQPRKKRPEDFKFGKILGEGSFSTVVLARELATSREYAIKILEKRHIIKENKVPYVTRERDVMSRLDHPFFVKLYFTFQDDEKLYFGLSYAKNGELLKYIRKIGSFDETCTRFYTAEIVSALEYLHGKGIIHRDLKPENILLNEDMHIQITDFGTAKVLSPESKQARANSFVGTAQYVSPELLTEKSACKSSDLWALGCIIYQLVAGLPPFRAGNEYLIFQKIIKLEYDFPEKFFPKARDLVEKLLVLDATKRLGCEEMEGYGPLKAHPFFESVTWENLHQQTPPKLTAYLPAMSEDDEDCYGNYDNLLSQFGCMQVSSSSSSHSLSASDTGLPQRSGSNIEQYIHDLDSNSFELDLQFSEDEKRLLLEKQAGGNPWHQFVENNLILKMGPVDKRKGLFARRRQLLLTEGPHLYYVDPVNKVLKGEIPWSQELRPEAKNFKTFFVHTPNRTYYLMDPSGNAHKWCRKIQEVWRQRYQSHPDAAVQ
# T3: PDK1 (Homo sapiens, UniProt O15530)
# T3 construct: Full length PDK1 (residues 1-556); made in house; host or cells: 293 cells
# T3 sequence (O15530 1-556): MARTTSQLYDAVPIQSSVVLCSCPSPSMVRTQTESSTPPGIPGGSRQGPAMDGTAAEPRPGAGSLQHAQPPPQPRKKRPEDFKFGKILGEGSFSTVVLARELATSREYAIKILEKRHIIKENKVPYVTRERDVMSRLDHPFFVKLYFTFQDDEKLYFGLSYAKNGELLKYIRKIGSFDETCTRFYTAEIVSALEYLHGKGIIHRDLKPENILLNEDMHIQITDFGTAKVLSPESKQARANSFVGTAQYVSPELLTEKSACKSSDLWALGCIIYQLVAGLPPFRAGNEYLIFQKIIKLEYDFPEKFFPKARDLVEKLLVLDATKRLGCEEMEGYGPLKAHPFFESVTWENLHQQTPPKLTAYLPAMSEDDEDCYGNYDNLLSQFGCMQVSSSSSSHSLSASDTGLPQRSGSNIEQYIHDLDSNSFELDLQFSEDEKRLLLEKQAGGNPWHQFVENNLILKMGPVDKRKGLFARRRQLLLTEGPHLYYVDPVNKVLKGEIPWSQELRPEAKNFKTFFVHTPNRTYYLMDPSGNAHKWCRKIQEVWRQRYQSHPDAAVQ
# How the values were obtained:
# PDK1-L155E = biological target: T1, PDK1-L155E; assay: Phosphorylation of AGC kinase substrates by PDK1 (32P, PhosphoImager); type: biochemical; conditions: PKB[S473D] rate by PDK1-wt = 100
# Procedure: (§1) Phosphorylation of AGC kinase substrates by PDK1. The phosphorylation of PDK1 substrates was performed in a final volume of 20 μl in a buffer containing 50 mM Tris-HCl pH 7.5, 0.1% (by vol) 2-mercaptoethanol, 10 mM magnesium chloride, 100 μM [γ-^32P]ATP (˜1000 c.p.m./pmol), 0.5 μM microcystin-LR, 0.6 μM AGC kinase substrate and 0.6 to 30 nM wild type PDK1 or the indicated mutant of PDK1.
# (§2) Relative phosphorylation of PDK1 substrates. PDK1 substrates were phosphorylated in vitro, subjected to SDS-PAGE, and radioactivity associated with the bands measured using a Phospho-Imager and known amounts of ATP as standard. The phosphorylation rate of PKB[S473D] in the presence of PtdIns (3,4,5)P3 was 2.6 mol/mol PDK1/min and was taken as the relative value of 100. Average values from a representative experiment performed in duplicates are shown.
# PDK1-wt = biological target: T2, PDK1-wt; assay: as above; type: biochemical
# Procedure: as §1, §2
# PDK1 = biological target: T3, PDK1; assay: Glutathione-Sepharose pull-down of PDK1 with S6K1 or SGK1 from 293 cells; type: binding; conditions: GST-SGK1 forms; wild type Myc-PDK1
# Procedure: FIG. 21. Interaction of S6K1 and SGK1 with PDK1. 293 cells were transiently transfected with DNA constructs expressing GST, GST-PDK1 wt or PDK1 L155E together with constructs expressing either wild type or the indicated mutants or truncations of HA tagged S6K1 (A) or wild type GST-ΔN-SGK1 or 422D mutant. 36 h post transfection the cells were lysed and GST fusion protein was purified by affinity chromatography on glutathione-Sepharose beads. Aliquots were electrophoresed on a 10% SDS-polyacrylamide gel, stained with Coomassie Blue, or immunoblotted using an anti-FLAG antibody to detect FLAG-S6K1 and anti-Myc antibody to detect Myc-PDK1. To establish that the wild type and mutant proteins were expressed at similar levels, […] of total lysate was electrophoresed on a 10% SDS-polyacrylamide gel and immunoblotted using the indicated antibodies. Duplicates of each condition are shown. Similar results were obtained in two different experiments.
# Binding of PDK1 to SGK1 and S6K1. For the data presented in FIG. 22, 293 cells were cotransfected with 10 μg of the wild type or mutant PDK1 plasmid and 10 μg of either the wild type or mutant S6K1 or SGK1. […] The gels were either stained with Coomassie blue, or analysed by immunoblotting with either anti-Flag or anti-Myc antibodies (described below).
molecule,measurement,setting,value
"DN-SGK: SGK1 lacking the N-terminal 60 amino acids (protein, left off: a dimerising Fc or GST, SGK1 lacking the N-terminal 60 amino acids) SQPQEPELMNANPSPPPSPSQQINLGPSSNPHAKPSDFHFLKVIGKGSFGKVLLARHKAEEVFYAVKVLQKKAILKKKEEKHIMSERNVLLKNVKHPFLVGLHFSFQTADKLYFVLDYINGGELFYHLQRERCFLEPRARFYAAEIASALGYLHSLNIVYRDLKPENILLDSQGHIVLTDFGLCKENIEHNSTTSTFCGTPEYLAPEVLHKQPYDRTVDWWCLGAVLYEMLYGLPPFYSRNTAEMYDNILNKPLQLKPNITNSARHLLEGLLQKDRTKRLGAKDDFMEIKSHVFFSLINWDDLINKKITPPFNPNVSGPNDLRHFDPEFTEEPVPNSIGKSPDSVLVTASVKEAAEAFLGFSYAPPTDSFL",Relative phosphorylation of PDK1 substrates PDK1-L155E +PIFtide,PDK1-L155E; with PIFtide,2.4
same,Relative phosphorylation of PDK1 substrates PDK1-L155E —,PDK1-L155E; without PIFtide,3.3
same,phosphorylated at a lower rate than SGK1[T422D],PDK1-wt,10 fold
same,Relative phosphorylation of PDK1 substrates PDK1-wt +PIFtide,"PDK1-wt; with PIFtide, PKB[S473D] rate with PtdIns(3,4,5)P3 = 100",3.8
same,Relative phosphorylation of PDK1 substrates PDK1-wt —,"PDK1-wt; without PIFtide, PKB[S473D] rate with PtdIns(3,4,5)P3 = 100",8
same,interaction with Myc-PDK1,PDK1,did not interact
